From patent US4587340A, “Biopterin analogs” (Burroughs Wellcome Co., priority 1984, dated 1986)

Legend:
[1] = substrate: COCC1CNc2nc(N)[nH]c(=O)c2N1; assay: Tryptophan hydroxylase cofactor assay; assay type: biochemical
Method: Tryptophan hydroxylase was assayed according to a modification of the method of Renson J., et al (Biochem. Biophys. Acta 25: 504 (1966)).

[2] = substrate: C[C@H](O)[C@H](O)[C@H]1CNc2nc(N)[nH]c(=O)c2N1; assay: cells, lysate or membranes named
[3] = substrate: COCC1CNc2nc(N)[nH]c(=O)c2N1; assay: Phenylalanine hydroxylase cofactor assay; assay type: biochemical; conditions: other: rat liver enzyme
[4] = substrate: C[C@H](O)[C@H](O)[C@H]1CNc2nc(N)[nH]c(=O)c2N1; assay: purified protein, by the assay type
[5] = substrate: COCC1CNc2nc(N)[nH]c(=O)c2N1; assay: Dihydropteridine reductase assay; assay type: biochemical; conditions: other: quinonoid dihydro form of the pterin
Method: Dihydropteridine reductase was assayed by the method of Craine, et al., (J. Biol. Chem., 247, 6082 (1972)).

B1: Tryptophan hydroxylase (Rattus norvegicus) (protein)
chain: MQPAMMMFSSKYWARRGLSLDSAVPEEHQILGGLTQNKATASKSEDKRSGKDTSESSKTAVVFSLKNEVGGLVRALRLFQEKHVNMLHIESRRSRRRSSEVEIFVDCECGKTEFNELIQLLKFQTTIVTLNPPDNIWTEEEELEDVPWFPRKISELDRCSHRVLMYGTELDADHPGFKDNVYRQRRKYFVDVAMGYKYGQPIPRVEYTEEETKTWGVVFRELSKLYPTHACREYLKNFPLLTKYCGYREDNVPQLEDVSMFLKERSGFTVRPVAGYLSPRDFLAGLAYRVFHCTQYVRHGSDPLYTPEPDTCHELLGHVPLLADPKFAQFSQEIGLASLGASDEDVQKLATCYFFTIEFGLCKQEGQLRAYGAGLLSSIGELKHALSDKACVKAFDPKTTCLQECLITTFQDAYFVSESFEEAKEKMRDFAKSITRPFSVYFNPYTQSIEILKDTRSIENVVQDLRSDLNTVCDALNKMNQYLGI
notes: The preparation of tryptophan hydroxylase was a crude 30,000xg supernatant; from tissue
**Q.** Which results are given for B1?
**A.** Km [1]: 103 µM; Km [2]: 82 µM

B2: Phenylalanine hydroxylase (Rattus norvegicus) (protein)
chain: MAAVVLENGVLSRKLSDFGQETSYIEDNSNQNGAISLIFSLKEEVGALAKVLRLFEENDINLTHIESRPSRLNKDEYEFFTYLDKRTKPVLGSIIKSLRNDIGATVHELSRDKEKNTVPWFPRTIQELDRFANQILSYGAELDADHPGFKDPVYRARRKQFADIAYNYRHGQPIPRVEYTEEEKQTWGTVFRTLKALYKTHACYEHNHIFPLLEKYCGFREDNIPQLEDVSQFLQTCTGFRLRPVAGLLSSRDFLGGLAFRVFHCTQYIRHGSKPMYTPEPDICHELLGHVPLFSDRSFAQFSQEIGLASLGAPDEYIEKLATIYWFTVEFGLCKEGDSIKAYGAGLLSSFGELQYCLSDKPKLLPLELEKTACQEYSVTEFQPLYYVAESFSDAKEKVRTFAATIPRPFSVRYDPYTQRVEVLDNTQQLKILADSINSEVGILCNALQKIKS
notes: Phenylalanine hydroxylase was prepared from rat liver using hydrophobic chromatography; from tissue; host or cells: rat liver
**Q.** With B2 as the protein, how does the Km [3] read?
**A.** The Km was 12.9 µM.

**Q.** What about the Km ([4]; other: rat liver enzyme) of the same protein?
**A.** The Km was 7.9 µM.

B3: Dihydropteridine reductase (Homo sapiens) (protein)
chain: MAAAAAAGEARRVLVYGGRGALGSRCVQAFRARNWWVASVDVVENEEASASIIVKMTDSFTEQADQVTAEVGKLLGEEKVDAILCVAGGWAGGNAKSKSLFKNCDLMWKQSIWTSTISSHLATKHLKEGGLLTLAGAKAALDGTPGMIGYGMAKGAVHQLCQSLAGKNSGMPPGAAAIAVLPVTLDTPMNRKSMPEADFSSWTPLEFLVETFHDWITGKNRPSSGSLIQVVTTEGRTELTPAYF
**Q.** With B3 as the protein, how does the Km [5] read?
**A.** Its Km is 7 µM.

**Q.** And the Km ([4]; other: quinonoid dihydro form of the pterin)?
**A.** The Km was 1.8 µM.
